According to patent publication US20120328616A1 (Amgen, published 2012):
Numbering of substitutions follows the chain as printed.

T1: huBeta_Klotho (1-81, 523-1044) (muBetaKLOTHO 82-520) (human; murine, UniProt Q86Z14 1-1044)
T1 construct: Expressed on HEK-293T cells; also called Chimera 1; Construct 1
T1 chain: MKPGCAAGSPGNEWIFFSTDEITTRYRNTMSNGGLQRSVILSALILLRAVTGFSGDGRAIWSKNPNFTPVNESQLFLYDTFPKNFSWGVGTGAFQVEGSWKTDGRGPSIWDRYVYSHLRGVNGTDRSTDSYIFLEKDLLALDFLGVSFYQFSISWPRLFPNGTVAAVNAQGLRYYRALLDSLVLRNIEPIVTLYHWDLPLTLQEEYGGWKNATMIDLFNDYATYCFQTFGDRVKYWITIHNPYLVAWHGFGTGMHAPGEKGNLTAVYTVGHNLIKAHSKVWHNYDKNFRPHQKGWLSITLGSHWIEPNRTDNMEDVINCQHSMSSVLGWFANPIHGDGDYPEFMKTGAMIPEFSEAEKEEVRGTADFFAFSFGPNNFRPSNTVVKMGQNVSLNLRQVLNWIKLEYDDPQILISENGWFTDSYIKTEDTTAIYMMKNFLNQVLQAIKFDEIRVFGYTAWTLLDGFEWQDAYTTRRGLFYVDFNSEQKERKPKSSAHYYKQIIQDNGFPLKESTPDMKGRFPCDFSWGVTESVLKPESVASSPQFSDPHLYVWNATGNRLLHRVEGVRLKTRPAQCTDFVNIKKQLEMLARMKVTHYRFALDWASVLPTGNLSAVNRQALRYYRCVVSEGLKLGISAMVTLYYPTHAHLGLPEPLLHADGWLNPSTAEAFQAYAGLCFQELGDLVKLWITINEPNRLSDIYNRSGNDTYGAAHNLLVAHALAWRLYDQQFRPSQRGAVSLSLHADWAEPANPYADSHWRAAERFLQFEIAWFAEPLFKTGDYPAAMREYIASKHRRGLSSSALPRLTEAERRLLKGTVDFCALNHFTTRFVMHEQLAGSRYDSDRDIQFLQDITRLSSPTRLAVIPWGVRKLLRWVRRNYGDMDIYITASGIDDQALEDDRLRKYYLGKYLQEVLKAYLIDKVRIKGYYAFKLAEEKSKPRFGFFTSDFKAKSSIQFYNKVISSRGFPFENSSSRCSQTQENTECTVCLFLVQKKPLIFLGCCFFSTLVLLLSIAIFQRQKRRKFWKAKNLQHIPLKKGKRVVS

T2: murine β-Klotho (murine, UniProt Q99N32 1-1043)
T2 construct: Full length (GenBank NP-112457), transiently expressed on HEK-293T cells; also called mu β-klotho; mouse β-Klotho
T2 sequence: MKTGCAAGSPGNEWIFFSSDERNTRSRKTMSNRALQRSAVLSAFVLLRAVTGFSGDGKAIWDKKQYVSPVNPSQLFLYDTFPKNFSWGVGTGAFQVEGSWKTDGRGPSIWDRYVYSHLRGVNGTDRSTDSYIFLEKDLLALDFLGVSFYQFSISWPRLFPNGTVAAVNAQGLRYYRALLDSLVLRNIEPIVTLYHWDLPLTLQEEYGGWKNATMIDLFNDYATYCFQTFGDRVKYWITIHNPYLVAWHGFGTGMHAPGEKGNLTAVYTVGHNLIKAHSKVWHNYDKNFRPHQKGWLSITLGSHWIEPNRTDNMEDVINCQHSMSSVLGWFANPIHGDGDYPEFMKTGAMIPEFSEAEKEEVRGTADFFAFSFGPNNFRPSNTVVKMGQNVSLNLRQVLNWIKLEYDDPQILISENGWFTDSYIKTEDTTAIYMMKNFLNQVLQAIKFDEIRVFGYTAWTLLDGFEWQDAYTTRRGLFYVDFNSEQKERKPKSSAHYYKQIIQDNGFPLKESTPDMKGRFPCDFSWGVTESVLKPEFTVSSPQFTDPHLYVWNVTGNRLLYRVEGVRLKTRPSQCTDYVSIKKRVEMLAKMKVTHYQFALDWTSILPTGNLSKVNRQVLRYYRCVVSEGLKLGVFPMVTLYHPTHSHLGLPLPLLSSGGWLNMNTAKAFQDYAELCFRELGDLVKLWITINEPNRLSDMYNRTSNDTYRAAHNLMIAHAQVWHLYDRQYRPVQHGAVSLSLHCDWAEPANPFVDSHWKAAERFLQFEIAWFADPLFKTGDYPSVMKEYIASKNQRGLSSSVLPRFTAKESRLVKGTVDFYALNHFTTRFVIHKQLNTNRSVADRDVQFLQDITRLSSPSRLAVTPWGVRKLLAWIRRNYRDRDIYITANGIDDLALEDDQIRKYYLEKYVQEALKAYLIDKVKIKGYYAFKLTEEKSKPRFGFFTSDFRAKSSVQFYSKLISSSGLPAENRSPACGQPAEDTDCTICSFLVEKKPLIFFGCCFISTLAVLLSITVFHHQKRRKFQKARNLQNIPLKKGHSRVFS

B1: 67C10.1 (antibody, V domains shown)
VH: EVQLVQSGAEVKKPGESLKISCQGSGYSFSSYWIGWVRQMPGKGLEWMGIIYPGDSDTRYSPSFQGQVTISADKSINTAYLQWSSLKASDTAIYYCARRASRGYRYGLAFAIWGQGTMVTVSS
VL: DFVMTQTPLSLPVTPGEPASISCRSSQSLLNSDDGNTYLDWYLQKPGQSPQLLIYTLSYRASGVPDRFSGSGSGTDFTLKISRVEAEDVGVYYCMQRIEFPITFGQGTRLEIKR
B2: 51E5.1 (antibody, V domains shown)
VH: QVQLQQWGAGLLKPSETLSLTCAVYGGSFSGYYWSWIRQPPGKGLEWIGELDHSGSINYNPSLKSRVTISVDTSKNQFSLKLTSVTAADTAVYYCARVLGSTLDYWGQGTLVTVSS
VL: DIQMTQSPSSLSASVGDRVTITCRASQDIRNDLGWYQQKPGKAPNRLIYAASSLQFGVPSRFSGSGSGTEFTLTISSLQPEDFATYYCLQHSSYPLTFGGGTRVEIKR
B3: 66G2.1 (antibody, V domains shown)
VH: QVQLVESGGGVVQPGRSLRLSCAASGFTFSSYGMHWVRQAPGKGLEWVAGISYDGSNKNYADSVKGRITISRDNPKNTLYLQMNSLRAEDTAVYYCATTVTKEDYYYYGMDVWGQGTTVTVSS
VL: B2 VL with D28G, N45K, S53N, F56S, E70K, S76N, H91L, S92N, S93G, R103K
B4: 49G3.3 (antibody, V domains shown)
VH: QVTLKESGPVLVKPTETLTLTCTVSGFSLSNPRMGVSWIRQPPGKALEWLTHIFSNDEKSYSTSLKSRLTISKDTSKSQVVLSMTNMDPVDTATYYCVRVDTLNYHYYGMDVWGQGTTVTVSS
VL: DIQMTQSPSSLSASIGDRVTITCQASQGISNYLNWYQQKPGKAPKLLIYDASNLETGVPSRFSGSGSGTDFTFTISSLQPEDIATYYCHQYDDLPLTFGGGTKVEIRR
B5: 65C3.1 (antibody, V domains shown)
VH: QVQLQESGPGLVKPSETLSLTCTVSGGSISSYYWSWIRQPPGKGLEWIGYIYYTGSTNYNPSLKSRVTISVDTSKNQFSLKLSSVTAADTAVYYCAREYYYGSGSYYPWGQGTLVTVSS
VL: EMVMTQSPATLSVSPGERATLSCRASQSVSSQLAWYQEKPGRAPRLLIYGASNRAIDIPARLSGSGSGTEFTLTISSLQSEDFAVYYCQQYNNWPWTFGQGTKVEFKR
B6: 67F5.1 (antibody, V domains shown)
VH: B5 VH with Q5K, T54S, S56N
VL: EIVMTQSPATLSVSPGERVTLSCRASQSVSSNLAWYQQKPGQAPRLLIHGSSNRAIGIPARFSGSGSGTEFTLTISSLQSADFAVYNCQQYEIWPWTFGQGTKVEIKR

target: T3, human FGFR1c (human, UniProt P11362 22-822); test: flow cytometry, transfected HEK293T
T3 construct: Full length (GenBank NP-075598), expressed on transfected 293T cells; also called huFGFR1c; FGFR1c alone

Row | binding result | Binder
1 | no binding | B1
2 | no binding | B2
3 | no binding | B3
4 | no binding | B4
5 | no binding | B5
6 | no binding | B6

target: T4, huBeta_Klotho (1-633, 852-1044) (muBeta KLOTHO 632G-849Q) (human; murine, UniProt Q86Z14 1-1044); test: flow cytometry, transfected HEK-293T
T4 construct: also called Chimera 10; Construct 10

Row | binding result | Binder
7 | no binding | B1
8 | no binding | B2
9 | no binding | B3
10 | binds | B4
11 | binds | B5
12 | no binding | B6

Target: T1, huBeta_Klotho (1-81, 523-1044) …
Test: flow cytometry, transfected HEK-293T

Row | binding result | Binder
13 | binds | B1
14 | binds | B2
15 | binds | B3
16 | no binding | B4
17 | binds | B5
18 | binds | B6

target: T5, huBeta_Klotho (1-81, 194-1044) (muBeta KLOTHO 82P-193L) (human; murine, UniProt Q86Z14 1-1044); test: flow cytometry, transfected HEK-293T
T5 construct: also called Chimera 13; Construct 13

Row | binding result | Binder
19 | binds | B1
20 | binds | B2
21 | binds | B3
22 | binds | B4
23 | binds | B5
24 | binds | B6

target: T6, huBeta_Klotho (1-736, 967-1044) (muBeta KLOTHO 735A-963S) (human; murine, UniProt Q86Z14 1-1044); test: flow cytometry, transfected HEK-293T
T6 construct: also called Chimera 11; Construct 11

Row | binding result | Binder
25 | no binding | B1
26 | no binding | B2
27 | no binding | B3
28 | binds | B4
29 | no binding | B5
30 | no binding | B6

target: T7, huBeta_Klotho (82-1044) (muBeta KLOTHO 1-81F) (murine; human, UniProt Q86Z14 1-1044); test: flow cytometry, transfected HEK-293T
T7 construct: also called Chimera 12; Construct 12

Row | binding result | Binder
31 | binds | B1
32 | binds | B2
33 | binds | B3
34 | no binding | B4
35 | binds | B5
36 | binds | B6

target: T2, murine β-Klotho; test: flow cytometry, transfected HEK-293T

Row | binding result | Binder
37 | no binding | B1
38 | no binding | B2
39 | no binding | B3
40 | no binding | B4
41 | no binding | B5
42 | no binding | B6

target: T8, huBeta_Klotho (1-521, 738-1044) (muBeta KLOTHO 520P-735A) (human; murine, UniProt Q86Z14 1-1044); test: flow cytometry, transfected HEK-293T
T8 construct: also called Chimera 9; Construct 9

Row | binding result | Binder
43 | no binding | B1
44 | no binding | B2
45 | no binding | B3
46 | binds | B4
47 | binds | B5
48 | no binding | B6
